Measured values from patent publication US20170137473A1, “FLUOROGEN ACTIVATING AND SHIFTING TAG (FAST)” (PARIS SCIENCES ET LETTRE - QUARTIER LATIN, priority 2014, published 2017).
Changes are numbered by the printed parent chain. Values belong to the molecule of their own block, whether it stands above or below them.

Tests used:
[1] = Acid-base titration and absorption/emission of free fluorogen in aqueous solution; type: physicochemical
Method: (§1) pH measurements were performed on a Standard pH meter PHM210 Radiometer Analytical (calibrated with aqueous buffers at pH 4 and 7 or 10) with a Crison 5208 Electrode (Barcelona, Spain). UV/Vis absorption spectra were recorded in 1 cm×1 cm quartz cuvettes (Hellma) on a diode array UV/Vis spectrophotometer (Evolution array, Thermo Scientific). Corrected fluorescence spectra upon one-photon excitation were recorded with a Photon Technology International QuantaMaster QM-1 spectrofluorimeter (PTI, Monmouth Junction, NJ) equipped with a Peltier cell holder (TLC50, Quantum Northwest, Shoreline, Wash.). The overall emission quantum yields after one-photon excitation φ were calculated from the relation: […]
(§2) where the subscript ref stands for standard samples. A(λexc) is the absorbance at the excitation wavelength λexc, D is the integrated emission spectrum, and n is the refractive index for the solvent. The uncertainty for the experimental value of φ was estimated to be ±20%. The standard fluorophore for the quantum yields measurements was Fluorescein in sodium hydroxide 0.1 M with φref=0.92. The titration experiments used for the determination of the thermodynamic constants were performed on a SpectraMax®M5e (Molecular Devices) plate-reader. The on- and off-rate constants were determined by stopped-flow experiments using a RX2000 rapid kinetic stopped flow accessory (Applied Photophysics, Leatherhead, UK). The circular dichroism spectra were recorded on a J-815 circular dichroism spectropolarimeter (Jasco). The photobleaching experiments were performed on a the Photon Technology International QuantaMaster QM-1 spectrofluorimeter (PTI, Monmouth Junction, NJ) equipped with a Peltier cell holder (TLC50, Quantum Northwest, Shoreline, Wash.).
The stability of the synthesized compounds was evaluated in aqueous solutions at neutral pH. Unstable and/or non-soluble compounds were not further studied. The photochemical and acido-basic properties of the remaining compounds were thus analyzed. Acid-base titrations were performed in aqueous solution by recording absorption and emission spectra as a function of pH.
The protonated phenol state of HBR was indeed shown to strongly absorb violet light (maximal absorption wavelength 397 nm), while the phenolate state strongly absorbs blue light (maximal absorption wavelength 449 nm) (FIG. 2). This red-shift in absorption upon ionization can be explained by the stronger electronic donation of the negatively charged phenolate. The possible fluorescence increase of HBR was evaluated by restricting the motion thereof in monitoring the influence of medium viscosity on HBR fluorescence emission. With a pKA of 8.4±0.1, HBR is mainly protonated at physiological pH, which enabled to forecast it could undergo a specific red shift upon binding-induced deprotonation within a tailored protein cavity. In aqueous solution, both acidic and basic states of HBR are weakly fluorescent (FIG. 3), emitting respectively at 470 and 545 nm with 0.02% and 0.3% fluorescence quantum yields.

HeLa cells [2] = assay: LIVE/DEAD viability assay (calceinAM, EthD1) of HeLa cells; type: cell-based; conditions: incubated 5 h at 5, 10 and 20 μM; concentrations used for imaging
Method: Cell viability was tested by using calceinAM and EthD1 (LIVE/DEAD® viability/cytotoxicity assay kit). CalceinAM is a cell-permeant profluorophore cleaved by intracellular esterases releasing the green fluorescent polyanionic calcein in live cells. EthD1 (Ethidium homodimer 1) is a non cell-permeant nucleic acid red fluorescent stain that enters only cells with damaged membranes and undergoes a fluorescence enhancement upon binding to nucleic acids, thereby producing a bright red fluorescence in dead cells. Control experiments with HeLa cells non-incubated with dye (top left, live control) or incubated for 1 h with 1% hydrogen peroxyde (top right, dead control) are shown. Cell fluorescence was evaluated by confocal microscopy.

[3] = system: wild-type bacteria, yeast and mammalian cells; assay: Fluorescence background of fluorogen in wild-type cells (flow cytometry, confocal); type: cell-based
Method: (§3) Flow cytometry analysis was performed on an Accuri C6 (BD Biosciences). Confocal micrographs were acquired on a Zeiss LSM 710 Laser Scanning Microscope equipped with a Plan Apochromat 63×/1.4 NA oil immersion objective. ZEN software was used to collect the data. Images were analyzed with Image J. Spinning-disk confocal micrographs were acquired on a Nikon Eclipse Ti microscope equipped with a 4×/0.15 N.A objective and a coolSnap HQ2/CDDcamera (Princeton Instrument). Metamorph premier 7.6 software (Molecular Devices) was used to collect the data.
(§4) Labeling of Y-FAST with HBR and HMBR in cells was then analyzed by flow cytometry in three different expression systems: yeast, E. coli and mammalian cells (HeLa cells). The fluorescence was compared to wild-type cells or cells expressing wild-type PYP. […] The performance and selectivity of Y-FAST labeling in mammalian cells, yeast and bacteria was furthermore confirmed by confocal microscopy (FIG. 14d and FIGS. 15 c to f and FIG. 16).

wild-type PYP = molecular target: T1, wild-type PYP (Halorhodospira halophila, UniProt P16113, C69G); assay: Fluorogen labeling of cells expressing wild-type PYP; type: cell-based
T1 construct: fusion partner differs by host: Aga2p (yeast surface display, pAG14); His-tag-ENLYFQG (E. coli, pET28a); expressed in transfected cells
Method: as §3, §4

[4] = known in the art; cited from earlier work
[5] = Absorption and emission properties of HBR-binding PYP variants in presence of HBR; type: physicochemical; conditions: variant with HBR; for λabs / λem: PBS pH 7.4; for Fluorescence quantum yield: fraction
Method: as §1, §2
The photophysical properties of the engineered fluorescent proteins were more precisely characterized. […] This 70 nm red-shift in absorption was in accordance with HBR being bound within the PYP-variant cavity in its deprotonated state. This red-shift in absorption upon binding was also accompanied with a large fluorescence increase at 540 nm (FIG. 10 and Table 2 below).

HeLa cells [6] = assay: Brightness and photostability of fluorescent proteins expressed in mammalian (HeLa) cells; type: cell-based
Method: FIG. 18 is a set of graphs and images showing Y-FAST brightness and photo-resistance in mammalian cells. […] (a) Confocal micrographs of representative cells (Ex/Em 488/493-797 nm; scale bars 10 μm). Side-by-side images were recorded using the same settings for direct comparison of the fluorescence intensities. (b) Quantification of the fluorescence brightness of the different proteins (n=15-30 cells).
UnaG upon long-term observation with high power 488 nm laser excitation (light power 90 kW·cm-2, pixel dwell 1.58 μs). Plots show the fluorescence intensity as a function of the number of confocal microscope scans.
HEK293 and HeLa cells were cultured in DMEM supplemented with phenol red, Glutamax I, 10% fetal calf serum and 1% penicillin-streptomycin at 37° C. within a 5% CO2 atmosphere. For microscopy imaging, cells were seeded in μDish IBIDI (Biovalley) coated with poly-L-lysine. Cells were transiently transfected using Genejuice (Merck) according to the manufacturer's protocol.
as §3

[7] = Circular dichroism stability of Y-FAST versus temperature; type: physicochemical; conditions: 25-45° C. range
Text: Note that we verified by circular dichroism, that Y-FAST was stable in the considered temperature range in order to ascertain that our two-state model was valid for the subsequent analyses.
as §2

[8] = glycerol content increased from 0 to 40% (v/v)

T1 sequence (P16113 whole entry C69G, the tested form may be a part): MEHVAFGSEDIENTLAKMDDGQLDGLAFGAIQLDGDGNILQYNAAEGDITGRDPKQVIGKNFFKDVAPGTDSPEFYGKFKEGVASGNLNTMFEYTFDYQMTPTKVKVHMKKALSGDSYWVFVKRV

- Relative brightness (% of EGFP) [5]: 7.4 % of EGFP
- brightness [5]: 2,500
- Fluorescence quantum yield [5]: 0.06
B2: Clone 4: fluorescent HBR-binding PYP variant, SEQ ID NO: 4, residues 94-101 WDIPTNPE (protein)
chain: MEHVAFGSEDIENTLAKMDDGQLDGLAFGAIQLDGDGNILQYNAAEGDITGRDPKQVIGKNFFKDVAPGTDSPEFYGKFKEGVASGNLNTMFEWDIPTNPEPTKVKVHMKKALSGDSYWVFVKRV
modifications: Functional derivative of SEQ ID NO: 48 - Clone 4
- Extinction coefficient [5]: 41,000 M^−1cm^−1
- λabs [5]: 468 nm
- λem [5]: 541 nm

- Relative brightness (% of EGFP) [5]: 8.3 % of EGFP
- brightness [5]: 2,800
- Fluorescence quantum yield [5]: 0.06
B3: Clone 5: fluorescent HBR-binding PYP variant, SEQ ID NO: 5, residues 94-101 WRIPTECA (protein)
chain: B2 chain with D95R, N99E, P100C, E101A
modifications: Functional derivative of SEQ ID NO: 48 - Clone 5
- Extinction coefficient [5]: 47,000 M^−1cm^−1
- λabs [5]: 468 nm
- λem [5]: 542 nm

- Relative brightness (% of EGFP) [5]: 9.0 % of EGFP
- brightness [5]: 3,000
- Fluorescence quantum yield [5]: 0.07
B5: Clone 6: fluorescent HBR-binding PYP variant, SEQ ID NO: 6, residues 94-101 WLIPTRNA (protein)
chain: B2 chain with D95L, N99R, P100N, E101A
modifications: Functional derivative of SEQ ID NO: 48 - Clone 6
- Extinction coefficient [5]: 43,000 M^−1cm^−1
- λabs [5]: 467 nm
- λem [5]: 539 nm

Further lines, the molecule ahead of its results:

Molecule: O=C1NC(=S)S/C1=C\c1ccc(O)cc1 [HBR, (Z)-5-(4-hydroxybenzylidene)-2-thioxo-1,3-thiazolidin-4-one]
- pKa ([1]; aqueous solution): 8.4 ± 0.1
- emission wavelength, acidic state ([1]; free in aqueous solution): 470 nm
- emission wavelength, basic state ([1]; free in aqueous solution): 545 nm
- fluorescence quantum yield, acidic state ([1]; free in aqueous solution): 0.02%
- fluorescence quantum yield, basic state ([1]; free in aqueous solution): 0.3%
- maximal absorption wavelength, phenolate state ([1]; free in aqueous solution): 449 nm
- maximal absorption wavelength, protonated phenol state ([1]; free in aqueous solution): 397 nm
- maximal absorption wavelength ([1]; free, PBS pH 7.4): 397 nm
- increase of the fluorescence quantum yield, acidic state [1, 8]: Six
- increase of the fluorescence quantum yield, basic state [1, 8]: three-fold
- toxicity for HeLa cells (HeLa cells [2]): non-toxic
- fluorescence background in wild-type cells [3]: no or negligible fluorescence background
- binding to wild-type PYP (wild-type PYP): do not bind

Molecule: parahydroxybenzylidene-5-imidazolinone [p-HBI]
- absorption wavelength, deprotonated form [4]: 475 nm
- absorption wavelength, protonated form [4]: 397 nm

B1: Clone 3: best fluorescent HBR-binding PYP variant, SEQ ID NO: 3, residues 94-101 WMIPTSRG (protein)
chain: B2 chain with D95M, N99S, P100R, E101G
modifications: Functional derivative of SEQ ID NO: 48 - Clone 3
- Extinction coefficient [5]: 44,000 M^−1cm^−1
- Relative brightness (% of EGFP) [5]: 12 % of EGFP
- brightness [5]: 4,000
- λabs [5]: 467 nm
- λem [5]: 542 nm
- Fluorescence quantum yield [5]: 0.09
- photostability in cells (HeLa cells [6]; 488 nm excitation): more stable than UnaG and Venus, but less than EGFP
- fluorescence in mammalian cells (HeLa cells [6]; blue excitation at 488 nm, Y-FAST labeled with 5 μM HMBR): comparable with that of the green fluorescent proteins EGFP and UnaG, and two fold lower than that of the yellow fluorescent Venus
- photostability in cells (HeLa cells [6]; excitation at 514 nm): almost did not photobleach
- fluorescence in mammalian cells (HeLa cells [6]; green excitation at 514 nm): five-fold less than Venus
- stability by circular dichroism [7]: stable

B4: Clone 2: fluorescent HBR-binding PYP variant, SEQ ID NO: 2, residues 94-101 WLIPTLPQ (protein)
chain: B2 chain with D95L, N99L, E101Q
modifications: Functional derivative of SEQ ID NO: 48 - Clone 2
- Extinction coefficient [5]: 46,000 M^−1cm^−1
- Relative brightness (% of EGFP) [5]: 8.3 % of EGFP
- brightness [5]: 2,800
- λabs [5]: 466 nm
- λem [5]: 540 nm
- Fluorescence quantum yield [5]: 0.06
